In PMC11344771:

Tests used:
[1] = molecular target: rhodamine-labelled SemD (SemD^Rhod) (Chlamydia pneumoniae); assay: recruitment to giant unilamellar vesicles (confocal microscopy); PS-containing GUVs with bound SemD^Rhod or mutSemD^Rhod (1 µg) and GFP-fused partner (1 µg) in PBS, room temperature, imaged 5-20 min; fluorescence intensity ratio of GUV perimeter to background
[2] = molecular target: BR-GBD fused to GFP (BR-GBD_(GFP-His)) (Rattus norvegicus) (UniProt O08816); assay: pull-down; GFP-Trap agarose, BR-GBD_(GFP-His) as bait, equimolar SemDΔAPHHis and Cdc42_(GppNHp) added simultaneously; immunoblot, normalised Elution:FT ratio
Sequence of BR-GBD fused to GFP (BR-GBD_(GFP-His)) (Rattus norvegicus) (O08816 142-273): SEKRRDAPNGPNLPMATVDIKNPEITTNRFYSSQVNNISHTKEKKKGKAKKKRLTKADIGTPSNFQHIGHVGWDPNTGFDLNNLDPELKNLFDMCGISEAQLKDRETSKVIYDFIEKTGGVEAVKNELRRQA

[3] = molecular target: N-WASP BR-GBD_(142-273) (Rattus norvegicus) (UniProt O08816); assay: SEC-SAXS; Superdex200 increase 10/300 GL, PBS pH 8.5 + 3 % glycerol, 20 °C; 8 mg/ml SemDΔAPH, 10 mg/ml BR-GBD, 8 mg/ml SemDΔAPH + BR-GBD, 3.3 mg/l SemDΔAPH + SNX9-SH3
Sequence of N-WASP BR-GBD_(142-273) (Rattus norvegicus) (O08816 142-273): as above

[4] = molecular target: BR-GBD fused to GFP (BR-GBD_(GFP-His)) (Rattus norvegicus) (UniProt O08816); assay: pull-down; GFP-Trap agarose, BR-GBD_(GFP-His) or GFP alone as bait, equimolar test protein, 5 min RT then 30 min 4 °C, washed 6x with 10 mM Tris-HCl, 200 mM NaCl, pH 8.5; immunoblot, Elution:FT ratio normalised to the bait
[5] = molecular target: SNX9-SH3GFP; assay: GUV membrane recruitment assay, confocal fluorescence quantification; details: PS-containing GUVs, read off a plot

Sequence of BR-GBD fused to GFP (BR-GBD_(GFP-His)) (O08816 142-273): as above
Sequence of BR-GBDΔGFP (lacking the BR domain) (O08816 other isoform, or with tags, fused parts or gaps mutant): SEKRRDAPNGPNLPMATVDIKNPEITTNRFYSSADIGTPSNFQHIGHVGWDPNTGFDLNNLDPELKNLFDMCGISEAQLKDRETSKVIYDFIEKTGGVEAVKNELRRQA

Substance “BR-GBD fused to GFP (BR-GBD_(GFP-His)) (from UniProt O08816 142-273) (domain or fragment)” has a fluorescence intensity ratio (GUV perimeter to background) [1] of 44.5 fold.
“BR-GBDΔGFP (lacking the BR domain) (from UniProt O08816 142-273) (domain or fragment)” was tested, and the fold lower fluorescence intensity ratio than BR-GBDGFP (after 20 min) [1] was over 18 fold.
Work on SemDΔAPH_(67-382) (domain or fragment) yielded a normalised Elution:FT ratio (with equimolar Cdc42 (GppNHp)) [2] of 100%, a stoichiometry N [3] of 1 and a normalised Elution:FT ratio [4] of 100%.
Substance “rhodamine-labelled SemD (SemD^Rhod) R91V; P92A; R94V; P95A; P97V; P98A; P99V; P100A; R117V; P119A; P121V; P122A” has a response ([5]; 5 min, parent: est. 950) of 1.1 and a response ([5]; 20 min, parent: est. 830) of 1.1.
